US20230137139A1, “BIOSYNTHESIS OF CANNABINOIDS AND C[…]” (priority 2020, published 2023)
Positions count from the first letter of the chain named.

B1: t861554 (protein)
chain: MGNTTSIAAGRDCLISAVGAANVAFQDQLLYQATAVQPYNLNIPVTPAAVTYPQSADEIAAVVKCASEYGYKVQARSGGHSFGNYGLGGQDGAIVIEMKHFSQFSMDESTFIATIGPGITLGDLDTDLYNAGHRAMAHGICPTIRTGGHLTVGGLGPTARQWGLALDHVEEVEVVLANSSIVRASDTQNQDLFFAIKGAAASFGIVTEFKVRTEQAPGMAVQYSYTFHLGTSAEKAKFVKDWQAFIAQENLTWKFYTNLVIFDDQIILEGIYFGTKEEYDSLGLEQRFPPTDAGTVLILTDWLAMIGHGLEDTILKLVGDTPTWFYAKSLGFTPRALIPDSAIDEFFDYIHENNPGTLAWFVTLSLEGGAINAVPEDATAYGHRDVLFWFQLFVINPLGPISQTTYGFADGLYDVLAQAVPESASHAYMGCPDPRMPNAQRAYWRSNLPKLEELKGYLDPEDIFHNPQGVVPS
B2: t861580 (protein)
chain: MGQTPSSPLADCLNAVCNGRDNCVAFPSAPLYQISWVDRYNLDIEVEPIAVTRPETAEDVSGFVKCAAAHNIKVQAKSGGHSYANYGLGGEDGELVVDLRNFQDFSIDTNTWQATFGAGHKLDDVTEKLHKNGKRAISHGTCPGVGIGGHATIGGLGPESRMWGSCLDHVIGVEVVTADGSIVHASDTENSDLFFALKGAGASFGIVTSFVVKTRPEPGSVVQYSYSVTFAKHADLSPVFRQWQELVMDPGLDRRFGTEFTMHELGVIISGTFYGTDEEFQATGIPDRIPKGKISVVFDDWMAVIAKHAEEAALSLSSISSAFTARSLAFRREDKISPETITNLMNYIDSADRGTLVWFLIFDATGGAISDVPTNATAYSHRDKVMYCQGYGVGIPTLNQQTKDFLSGIINTIQSGAGNTLTTYPGYVDPALTNPQESYWGPNIDTLRAIKSQWDPNDIFHNPQSVRPAAVAA
modifications: Monosporascus sp. mg162
B3: t861567 (protein)
chain: MDSNTWEATFGSGFLLGELDKHLHANGNRAMAHGTCPGVGMGGHATIGGIGPSSRLWGTTLDHVLQVEVVTADGKIQRASKTQNPDLFWALQGAGASFGIITEFVVRTEPEPGSVVEYTYSVSLGKQSDMAPLYKQWQALVGDPSLDRRFTSLFIAEPLGVLITGTFYGTMYEWHASGIPDKLPRGPISVTVMDSLGSLAHIAEKTGLYLTNVPTSFASRSLALRQQDLLSEQSIDDLFEYMGSANADTPLWFVIFDNEGGAIADVPDNSTAYPHRDKVIVYQSYSVGLLGVTDKMIKFLDGVQDIVQRGAPNAHTTYAGYINPQLDRKAAQQFYWGDKLPRLQQIKKQYDPNNVFCNPQSIYPAEDMSDG
B4: t861583 (protein)
chain: MGNTTSIAGRDCLISALGGNSALAVFPNELLWTADVHEYNLNLPVTPAAITYPETAAQIAGVVKCASDYDYKVQARSGGHSFGNYGLGGADGAVVVDMKHFTQFSMDDETYEAVIGPGTTLNDVDIELYNNGKRAMAHGVCPTIKTGGHFTIGGLGPTARQWGLALDHVEEVEVVLANSSIVRASNTQNQDVFFAVKGAAANFGIVTEFKVRTEPAPGLAVQYSYTFNLGSTAEKAQFVKDWQSFISAKNLTRQFYNNMVIFDGDIILEGLFFGSKEQYDALGLEDHFAPKNPGNILVLTDWLGMVGHALEDTILKLVGNTPTWFYAKSLGFRQDTLIPSAGIDEFFEYIANHTAGTPAWFVTLSLEGGAINDVAEDATAYAHRDVLFWVQLFMVNPLGPISDTTYEFTDGLYDVLARAVPESVGHAYLGCPDPRMEDAQQKYWRTNLPRLQELKEELDPKNTFHHPQGVMPA
B5: t861558 (protein)
chain: B4 chain with V25A, A57E, V374I
B6: t861590 (protein)
chain: B4 chain with V25A, A57E, V374I
B7: t861574 (protein)
chain: B4 chain with V25A, A57E, V62I, V374I
B8: t861571 (protein)
chain: B4 chain with L398V
B9: t861589 (protein)
chain: B4 chain
B10: t861577 (protein)
chain: MGNTTSIAGRDCLISALGGNSALAAFPNQLLWTADVHEYNLNLPVTPAAITYPETAEQIAGIVKCASDYDYKVQARSGGHSFGNYGLGGTDGAVVVDMKHFNQFSMDDQTYEAVIGPGTTLNDVDIELYNNGKRAMAHGVCPTIKTGGHFTIGGLGPTARQWGLALDHVEEVEVVLANSSIVRASNTQNQDVLFAVKGAAADFGIVTEFKVRTEPAPGLAVQYSYTFNLGSTAEKAQFVKDWQSFISAKNLTRQFYNNMVIFDGDIILEGLFFGSKEQYDALGLEDHFAPKNPGNILVLTDWLGMVGHALEDTILKLVGNTPTWFYAKSLGFRQDTLIPSAGIDEFFEYIDNHTAGTPAWFVTLSLEGGAINDVAEDATAYAHRDVLFWVQLFMVNPLGPISETTYEFTDGLYDVLARAVPESVGHAYLGCPDPRMENAPQKYWRTNLPRLQELKEELDPKNTFHHPQGVIPA
B11: t861566 (protein)
chain: B10 chain with I14V, D107N, L193F, D351A
B12: t861587 (protein)
chain: B10 chain with I14V, D107N, L193F, D351A
B13: t861592 (protein)
chain: B10 chain
B14: t861579 (protein)
chain: MGNTTSIAAGRDCLVSAVGPAHVTFQDALLYQTTAVDPYNLNIPVTPAAVTYPQSAEEIAAVVKCASDYDYKVQARSGGHSFGNYGLGGQNGAIVVDMKHFSQFSMDESTFVATIGPGTTLGDLDTELYNAGGRAMAHGICPTIRTGGHLTVGGLGPTARQWGLALDHIEEVEVVLANSSIVRASNTQNQDILFAVKGAAASFGIVTEFKVRTQEAPGLAVQYSFTFNLGSPAQKAKLVKDWQAFIAQENLSWKFYSNLVIFDGQIILEGIFFGSKEEYDELDLEKRFPTSEPGTVLVLTDWLGMIGHALEDTILKLVGDTPTWFYAKSLGFTPDTLIPDSAIDDFFDYIHKTNAGTLAWFVTLSLEGGAINSVSEDATAYGHRDVLFWFQVFVVNPLGPISQTTYDFTNGLYDVLAQAVPESAGHAYLGCPDPKMPDAQRAYWRSNLPRLEDLKGDLDPKDTFHNPQGVQVGP

tested on: CBCA production; assay: In vivo TS activity assay, Example 4 CBCAS enzymes with and without signal peptides, no pH adjustment; assay type: cell-based; details: strains with (Y) or without (N) N-terminal and C-terminal signal peptides; no pH adjustment at Day 4; S. cerevisiae
Protocol: An assay to detect TS activity was conducted as follows: each thawed glycerol stock of candidate CBCAS transformants was stamped into a well of YEP+4% dextrose media. Samples were incubated at 30° C. in a shaking incubator for 2 days. A portion of each of the resulting cultures was stamped into a well of YEP+4% galactose+1 mM olivetolic acid (FIG. 1 Structure 6a). Samples were incubated at 20° C. and shaken in a shaking incubator for 4 days. Every 24 hours during those 4 days, 2% galactose and 1 mM olivetolic acid were spiked into the cultures. Sodium citrate buffer adjusted to pH 5.5 was added to each well at a final concentration of 100 mM. Samples were incubated at 20° C. and shaken in a shaking incubator for 2 days. A portion of each of the resulting production cultures was stamped into a well of phosphate buffered saline (PBS). Optical measurements were taken on a plate reader, with absorbance measured at 600 nm and fluorescence at 528 nm with 485 nm excitation. Samples were incubated at 30° C. in a shaking incubator for 2 days. 100% methanol was stamped into the production cultures in half-height deepwell plates. Plates were heat sealed and frozen. Samples were then thawed for 30 min and spun down at 4° C. A portion of the supernatant was stamped into half-area 96 well plates. CBCA, THCA, and CBDA production in the samples was quantified via liquid chromatography-mass spectrometry (LC-MS).
A library of 20 CBCAS enzymes selected from Example 1 and 3 was synthesized, including versions of the CBCAS enzymes with and without the N-terminal MFalpha2 signal peptide (SEQ ID NO: 16) and C-terminal HDEL signal peptide (SEQ ID NO: 17). Each candidate enzyme expression construct was transformed into an S. cerevisiae CEN.PK strain that also expressed a prenyltransferase enzyme capable of catalyzing reaction R^4 in FIG. 2. Strain t861555 expressing the A. niger CBCAS identified in Example 1, carrying both the Mfalpha2 and HDEL signal peptides was included in the library screen as a positive control for enzyme activity. Strain t861565 expressed the same A. niger CBCAS without the Mfalpha2 and HDEL signal peptides.
The strains were screened using the assay described in Example 1 with the following exception: at Day 4 samples were not subjected to a pH adjustment and a further 2 days of incubation at 20° C.

Going from B1 to B2, the “Average CBCA” value falls from 5334.71 µg/L to 0.00 µg/L.

Compared with B3, B4 is higher in “Average CBCA” value: 0.00 µg/L for the first, 59260.52 µg/L for the second.

Compared with B5, B6 is 2-fold higher in “Average CBCA” value: 27898.00 µg/L for the first, 55852.93 µg/L for the second.

B7 and B8 are within 1.5-fold of each other in “Average CBCA” value: 38142.03 µg/L for the first, 54271.76 µg/L for the second.

Going from B9 to B10, the “Average CBCA” value falls from 95796.21 µg/L to 36869.19 µg/L (2.6-fold).

B11 and B12 are within 1.5-fold of each other in “Average CBCA” value: 61918.09 µg/L for the first, 82883.01 µg/L for the second.

B13 and B14 are within 1.5-fold of each other in “Average CBCA” value: 74584.36 µg/L for the first, 57912.84 µg/L for the second.
